Laboratory results reported in US20250313631A1 (HUMMINGBIRD BIOSCIENCE PTE, published 2025).
Where two headings read alike, the source gives them in different places.

What was measured:
[1] = biological target: T1, recombinant human VISTA (His-tagged) (human, UniProt Q9H7M9 33-194); assay: ELISA, plate coated with human VISTA
T1 construct: bought soluble protein (Sino Biological); also called hVISTA; human VISTA polypeptide

human PD-1 = human PD-1 (human, UniProt Q15116 25-167); assay: ELISA, plate coated with the antigen
Chain of human PD-1 (Q15116 25-167 limits assumed): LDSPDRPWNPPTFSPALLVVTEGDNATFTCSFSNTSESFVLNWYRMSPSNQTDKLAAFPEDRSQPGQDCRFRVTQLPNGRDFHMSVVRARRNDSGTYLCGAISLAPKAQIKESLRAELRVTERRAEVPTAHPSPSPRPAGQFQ

human B7H3 [2] = biological target: T2, human B7H3 (human, UniProt Q5ZPR3 29-461, limits assumed); assay: ELISA, plate coated with the antigen
T2 construct: also called CD276
T2 sequence (looked up): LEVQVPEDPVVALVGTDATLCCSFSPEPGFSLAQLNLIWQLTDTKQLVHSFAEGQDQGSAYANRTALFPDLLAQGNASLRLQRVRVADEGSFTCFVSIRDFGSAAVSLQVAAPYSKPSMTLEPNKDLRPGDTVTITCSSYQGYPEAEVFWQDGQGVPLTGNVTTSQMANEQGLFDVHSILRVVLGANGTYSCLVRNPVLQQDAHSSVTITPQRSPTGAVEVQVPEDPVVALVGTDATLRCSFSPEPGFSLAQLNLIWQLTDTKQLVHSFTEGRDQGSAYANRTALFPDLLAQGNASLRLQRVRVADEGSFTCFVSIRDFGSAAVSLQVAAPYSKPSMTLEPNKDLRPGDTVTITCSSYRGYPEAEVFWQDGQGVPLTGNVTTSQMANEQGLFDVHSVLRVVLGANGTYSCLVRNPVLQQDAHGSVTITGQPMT

human B7H4 = biological target: T3, human B7H4 (human, UniProt Q7Z7D3 25-258, limits assumed); assay: ELISA, plate coated with the antigen
T3 construct: also called VTCN1
T3 sequence (looked up): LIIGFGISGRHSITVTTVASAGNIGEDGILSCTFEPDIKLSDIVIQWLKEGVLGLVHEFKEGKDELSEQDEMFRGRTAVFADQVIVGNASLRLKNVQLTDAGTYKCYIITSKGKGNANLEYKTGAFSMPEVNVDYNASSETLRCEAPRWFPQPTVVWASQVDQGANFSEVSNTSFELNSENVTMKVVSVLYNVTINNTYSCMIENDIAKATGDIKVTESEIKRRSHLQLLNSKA

human B7H6 = biological target: T4, human B7H6 (human, UniProt Q68D85 25-262); assay: ELISA, plate coated with the antigen
T4 construct: also called NCR3LG1
T4 sequence (looked up): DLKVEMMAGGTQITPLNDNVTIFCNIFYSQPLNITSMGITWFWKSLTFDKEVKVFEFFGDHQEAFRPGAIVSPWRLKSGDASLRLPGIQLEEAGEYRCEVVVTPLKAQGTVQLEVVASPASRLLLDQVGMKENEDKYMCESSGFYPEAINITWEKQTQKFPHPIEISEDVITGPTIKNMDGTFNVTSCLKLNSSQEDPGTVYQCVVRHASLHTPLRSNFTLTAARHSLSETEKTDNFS

human B7H7 = biological target: T5, human B7H7 (human, UniProt Q9UM44 23-344); assay: ELISA, plate coated with the antigen
T5 construct: also called HHLA2
T5 sequence (looked up): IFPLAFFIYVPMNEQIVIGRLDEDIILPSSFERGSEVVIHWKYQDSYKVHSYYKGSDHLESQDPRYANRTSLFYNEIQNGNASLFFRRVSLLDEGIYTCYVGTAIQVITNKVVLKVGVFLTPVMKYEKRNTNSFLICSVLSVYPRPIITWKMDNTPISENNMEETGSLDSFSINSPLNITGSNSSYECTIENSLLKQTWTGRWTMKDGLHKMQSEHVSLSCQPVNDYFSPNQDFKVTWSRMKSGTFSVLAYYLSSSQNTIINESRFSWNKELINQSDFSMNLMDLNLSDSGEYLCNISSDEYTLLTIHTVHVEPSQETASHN

human CTLA4 = human CTLA4 (human, UniProt P16410 36-162); assay: ELISA, plate coated with the antigen
Chain of human CTLA4 (P16410 36-162 limits assumed): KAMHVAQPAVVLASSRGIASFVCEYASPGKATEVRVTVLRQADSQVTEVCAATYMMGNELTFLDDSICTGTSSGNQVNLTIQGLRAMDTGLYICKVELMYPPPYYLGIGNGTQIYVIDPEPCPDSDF

[3] = biological target: T1, recombinant human VISTA (His-tagged); assay: ELISA, plate coated with human VISTA; remark: listed apart in the source
[4] = biological target: T1, recombinant human VISTA (His-tagged); assay: ELISA, VISTA-HIS protein coated; ELISA, human VISTA-HIS
Description: (§1) 384-well plates were coated with 1 μg/ml of target antigen diluted in PBS for 16 hrs at 4° C. […] After washing, plates were developed with colorimetric detection substrate 3,3′,5,5′-tetramethylbenzidine (Turbo-TMB; Pierce) for 10 min.

[5] = biological target: T1, recombinant human VISTA (His-tagged); assay: antigen-binding ELISA; HMBD-002 10 mg/mL in F1, day 0
[6] = biological target: T1, recombinant human VISTA (His-tagged); assay: antigen-binding ELISA; HMBD-002 10 mg/mL in F4, day 0
[7] = biological target: T1, recombinant human VISTA (His-tagged); assay: antigen-binding ELISA; HMBD-002 in F1, day 10 at 40°C
[8] = biological target: T1, recombinant human VISTA (His-tagged); assay: antigen-binding ELISA; HMBD-002 in F4, day 20 at 40°C
[9] = biological target: T1, recombinant human VISTA (His-tagged); assay: antigen-binding ELISA; HMBD-002 in F5, day 20 at 40°C
[10] = biological target: T1, recombinant human VISTA (His-tagged); assay: antigen-binding ELISA; HMBD-002 in F5, day 30 at 40°C
[11] = biological target: T1, recombinant human VISTA (His-tagged); assay: antigen-binding ELISA; HMBD-002 in F8, day 10 at 40°C
human B7H3 [12] = biological target: T2, human B7H3; assay: ELISA, plate coated with human B7H3, antibody titrated
Description: as §1

[13] = biological target: T6, recombinant cynomolgus macaque VISTA (His-tagged) (cynomolgus macaque, UniProt A0A7N9IB00 33-194); assay: ELISA, NHP VISTA-HIS protein coated; ELISA, NHP (cynomolgus) VISTA-HIS
T6 construct: also called cyno VISTA; cynomolgus monkey VISTA
Description: as §1

[14] = biological target: T1, recombinant human VISTA (His-tagged); assay: ELISA on coated human VISTA, antibody diluted in buffer of pH 7.5
Description: as §1

B1: anti-VISTA clone V4-C24 IgG1 (antibody, V domains shown)
VH: QVQLQESGPGLVKPSDTLSLTCTVSGYSITSDYTWNWIRQTPGKGLEWIGHITYSGSVSYNPSLRSRVTISRDTSKNQFSLKLSSVTAADTATYSCARALYYPWYFDVWGTGTTVTVSS
VL: EIVLTQSPATLSLSPGERATLSCRASSSVGYIHWYQQKPGQAPRPLIYTTSYRATGIPARFSGSGSGTDNTLTISSLEPEDSAVYYCQQWSSYPPITFGGGTKLEVKR
Question: What does the source list for B1?
Answer: EC50 (read off the curve) [1]: ~0.02 nM; binding result (human PD-1): no binding (tested: log -7.5 M); binding result (human B7H3 [2]): no binding (tested: log -7.5 M); binding result (human B7H4): no binding (tested: log -7.5 M); binding result (human B7H6): no binding (tested: log -7.5 M); binding result (human B7H7): no binding (tested: log -7.5 M); binding result (human CTLA4): no binding (tested: log -7.5 M)

B2: anti-VISTA clone V4-C27 IgG1 (antibody, V domains shown)
VH: QVQLQESGPGLVKPSDTLSLTCTVSGYSITSDYTWNWIRQTPGKGLEWIGHITYSGSVSYNPSLRSRVTISRDTSKNQFSLKLSSVTAADTATYSCARALYYPWYFDVWGTGTTVTVSS
VL: EIVLTQSPATLSLSPGERATLSCRASSSVGYIHWYQQKPGQAPRPLIYATYNRATGIPARFSGSGSGTDNTLTISSLEPEDSAVYYCQQWSSYPPITFGGGTKLEVKR
Question: Which “EC50 (read off the curve)” value [3] does the source give for B2 here?
Answer: ~0.01 nM

B3: V4-C26 hIgG4 (antibody)
heavy: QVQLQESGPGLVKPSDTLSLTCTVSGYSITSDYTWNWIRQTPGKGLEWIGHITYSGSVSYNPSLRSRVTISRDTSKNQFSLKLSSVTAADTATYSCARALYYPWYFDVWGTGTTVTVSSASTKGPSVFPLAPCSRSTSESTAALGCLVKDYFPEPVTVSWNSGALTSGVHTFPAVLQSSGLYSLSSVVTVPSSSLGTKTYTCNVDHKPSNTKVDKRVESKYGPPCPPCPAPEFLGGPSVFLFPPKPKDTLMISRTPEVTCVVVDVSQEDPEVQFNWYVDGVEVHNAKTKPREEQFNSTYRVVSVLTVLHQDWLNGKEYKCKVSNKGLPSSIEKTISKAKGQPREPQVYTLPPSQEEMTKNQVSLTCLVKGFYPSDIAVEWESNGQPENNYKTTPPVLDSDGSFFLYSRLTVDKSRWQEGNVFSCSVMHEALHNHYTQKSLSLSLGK
light: EIVLTQSPATLSLSPGERATLSCRASSSVGYIHWYQQKPGQAPRPIIYTTSNRATGIPARFSGSGSGTDNTLTISSLEPEDSAVYYCQQWSSYPPITFGGGTKLEVKRTVAAPSVFIFPPSDEQLKSGTASVVCLLNNFYPREAKVQWKVDNALQSGNSQESVTEQDSKDSTYSLSSTLTLSKADYEKHKVYACEVTHQGLSSPVTKSFNRGEC
notes: human IgG4 (S228P)/kappa format; also called HMBD-002; HMBD-002-V4C26
Question: Which results are given for B3?
Answer: EC50 [4]: 0.00512 nM; EC50 [5]: 0.04 nM; EC50 [6]: 0.0357 nM; EC50 [7]: 0.0306 nM; EC50 [8]: 0.0205 nM; EC50 [9]: 0.0239 nM; EC50 [10]: 0.0223 nM; EC50 [11]: 0.028 nM; binding result (human B7H3 [12]): no binding (tested: about 3e-8 M); EC50 [13]: 0.0121 nM; EC50 [14]: 0.0287 nM
